Data from publication PMC5520056, “Cryo-EM structures of the ATP-bound Vps4^E233Q hexamer and its complex with Vta1 at near-atomic resolution” (Nature Communications, 2017).

B1: Vps4^E233Q (full-length yeast Vps4 containing an mutation) [Saccharomyces cerevisiae] / itself (parent)
chain: MSTGDFLTKGIELVQKAIDLDTATQYEEAYTAYYNGLDYLMLALKYEKNPKSKDLIRAKFTEYLNRAEQLKKHLESEEANAAKKSPSAGSGSNGGNKKISQEEGEDNGGEDNKKLRGALSSAILSEKPNVKWEDVAGLEGAKEALKEAVILPVKFPHLFKGNRKPTSGILLYGPPGTGKSYLAKAVATEANSTFFSVSSSDLVSKWMGESEKLVKQLFAMARENKPSIIFIDQVDALTGTRGEGESEASRRIKTELLVQMNGVGNDSQGVLVLGATNIPWQLDSAIRRRFERRIYIPLPDLAARTTMFEINVGDTPCVLTKEDYRTLGAMTEGYSGSDIAVVVKDALMQPIRKIQSATHFKDVSTEDDETRKLTPCSPGDDGAIEMSWTDIEADELKEPDLTIKDFLKAIKSTRPTVNEDDLLKQEQFTRDFGQEGN

Variants of: B1
Test: SEC
Conditions: with itself; in the presence of ATP; height of the peak at the hexamer elution position (~12.5 ml); read off a plot

**Q.** chain 1 D431A was tested. Which response did it give?
**A.** 42 mAU

Same assay, conditions: with itself; in the presence of ATP; height of the broad peak at the hexamer elution position (~12 ml); read off a plot

**Q.** chain 1 K154A F155A was tested. Which response did it give?
**A.** 44 mAU

Same assay, conditions: with itself; height of the peak at the hexamer elution position (~12 ml); read off a plot

**Q.** Which response does the source give for chain 1 R289A here?
**A.** 13 mAU

Same assay, conditions: with itself; in the presence of ATP; height of the broad peak at the hexamer elution position (~11.5-12 ml); read off a plot

**Q.** For chain 1 E247A, which response is on record?
**A.** 72 mAU

Same assay, conditions: with itself; in the presence of ATP; height of the peak at the hexamer elution position (~12 ml); read off a plot

**Q.** With chain 1 K215A as the variant, how does the response read?
**A.** 88 mAU

**Q.** chain 1 L396A was tested. Which response did it give?
**A.** 65 mAU
